Reference: the supplement of paper PMC11908140

B1: library; numbered along this chain (parent)
chain: MRKPRAAVGSGHRKQAASQEGRQKHAKNNSQAKPSACDGLARQPEEVVLQASVSSYHLFRDVAEVTAFRGSLLSWYDQEKRDLPWRRRAEDEMDLDRRAYAVWVSEVMLQQTQVATVINYYTGWMQKWPTLQDLASASLEEVNQLWAGLGYYSRGRRLQEGARKVVEELGGHMPRTAETLQQLLPGVGRYTAGAIASIAFGQATGVVDGNVARVLCRVRAIGADPSSTLVSQQLWGLAQQLVDPARPGDFNQAAMELGATVCTPQRPLCSQCPVESLCRARQRVEQEQLLASGSLSGSPDVEECAPNTGQCHLCLPPSEPWDQTLGVVNFPRKASRKPPREESSATCVLEQPGALGAQILLVQRPNSGLLAGLWEFPSVTWEPSEQLQRKALLQELQRWAGPLPATHLRHLGEVVHTFSHIKLTYQVYGLALEGQTPVTTVPPGARWLTQEEFHTAAVSTAMKKVFRVYQGQQPGTCMGSKRSQVSSPCSRKKPRMGQQVLDNFFRSHISTDAHSLNSAAQ

Variants of: B1
Test: 8OG:A repair function score (normalized; synonymous = 0, nonsense = -1) (normalized log-likelihood score); higher = more repair activity (WT-like)
Conditions: with 8OG:A DNA repair reporter (GFP) in HEK-293 MUTYH KO cells
Method: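 Saturation mutagenesis (NNN codon scan) of the MUTYH cDNA (521-aa nuclear isoform NM_001048174.1 / NP_001041639), stably expressed under doxycycline induction in HEK-293 MUTYH knockout cells. Cells were co-transfected with an 8OG:A-bearing GFP repair reporter plus mCherry and sorted 72 h later into GFP+ and GFP− bins, three replicates per tile. The Rosace log2 enrichment (GFP+ vs GFP−) was converted per tile to a normalized function score with synonymous variants centered at 0 and nonsense variants (codons 1-471) at -1; low-abundance variants were removed.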

Variant | 8OG:A repair function score
MRKPRAAVGSGHRKQAASQEGRQKHAKNNSQAKPSACDGLARQPEEVVLQASISSYHLFRDVAEVTAFRGSLLSWYDQEKRDLPWRRRAEDEMDLDRRAYAVWVSEVMLQQTQVATVINYYTGWMQKWPTLQDLASASLEEVNQLWAGLGYYSRGRRLQEGARKVVEELGGHMPRTAETLQQLLPGVGRYTAGAIASIAFGQATGVVDGNVARVLCRVRAIGADPSSTLVSQQLWGLAQQLVDPARPGDFNQAAMELGATVCTPQRPLCSQCPVESLCRARQRVEQEQLLASGSLSGSPDVEECAPNTGQCHLCLPPSEPWDQTLGVVNFPRKASRKPPREESSATCVLEQPGALGAQILLVQRPNSGLLAGLWEFPSVTWEPSEQLQRKALLQELQRWAGPLPATHLRHLGEVVHTFSHIKLTYQVYGLALEGQTPVTTVPPGARWLTQEEFHTAAVSTAMKKVFRVYQGQQPGTCMGSKRSQVSSPCSRKKPRMGQQVLDNFFRSHISTDAHSLNSAAQ [V53I] | -0.0188
MRKPRAAVGSGHRKQAASQEGRQKHAKNNSQAKPSACDGLARQPEEVVLQASWSSYHLFRDVAEVTAFRGSLLSWYDQEKRDLPWRRRAEDEMDLDRRAYAVWVSEVMLQQTQVATVINYYTGWMQKWPTLQDLASASLEEVNQLWAGLGYYSRGRRLQEGARKVVEELGGHMPRTAETLQQLLPGVGRYTAGAIASIAFGQATGVVDGNVARVLCRVRAIGADPSSTLVSQQLWGLAQQLVDPARPGDFNQAAMELGATVCTPQRPLCSQCPVESLCRARQRVEQEQLLASGSLSGSPDVEECAPNTGQCHLCLPPSEPWDQTLGVVNFPRKASRKPPREESSATCVLEQPGALGAQILLVQRPNSGLLAGLWEFPSVTWEPSEQLQRKALLQELQRWAGPLPATHLRHLGEVVHTFSHIKLTYQVYGLALEGQTPVTTVPPGARWLTQEEFHTAAVSTAMKKVFRVYQGQQPGTCMGSKRSQVSSPCSRKKPRMGQQVLDNFFRSHISTDAHSLNSAAQ [V53W] | -0.276
MRKPRAAVGSGHRKQAASQEGRQKHAKNNSQAKPSACDGLARQPEEVVLQASRSSYHLFRDVAEVTAFRGSLLSWYDQEKRDLPWRRRAEDEMDLDRRAYAVWVSEVMLQQTQVATVINYYTGWMQKWPTLQDLASASLEEVNQLWAGLGYYSRGRRLQEGARKVVEELGGHMPRTAETLQQLLPGVGRYTAGAIASIAFGQATGVVDGNVARVLCRVRAIGADPSSTLVSQQLWGLAQQLVDPARPGDFNQAAMELGATVCTPQRPLCSQCPVESLCRARQRVEQEQLLASGSLSGSPDVEECAPNTGQCHLCLPPSEPWDQTLGVVNFPRKASRKPPREESSATCVLEQPGALGAQILLVQRPNSGLLAGLWEFPSVTWEPSEQLQRKALLQELQRWAGPLPATHLRHLGEVVHTFSHIKLTYQVYGLALEGQTPVTTVPPGARWLTQEEFHTAAVSTAMKKVFRVYQGQQPGTCMGSKRSQVSSPCSRKKPRMGQQVLDNFFRSHISTDAHSLNSAAQ [V53R] | 0.00694
MRKPRAAVGSGHRKQAASQEGRQKHAKNNSQAKPSACDGLARQPEEVVLQASMSSYHLFRDVAEVTAFRGSLLSWYDQEKRDLPWRRRAEDEMDLDRRAYAVWVSEVMLQQTQVATVINYYTGWMQKWPTLQDLASASLEEVNQLWAGLGYYSRGRRLQEGARKVVEELGGHMPRTAETLQQLLPGVGRYTAGAIASIAFGQATGVVDGNVARVLCRVRAIGADPSSTLVSQQLWGLAQQLVDPARPGDFNQAAMELGATVCTPQRPLCSQCPVESLCRARQRVEQEQLLASGSLSGSPDVEECAPNTGQCHLCLPPSEPWDQTLGVVNFPRKASRKPPREESSATCVLEQPGALGAQILLVQRPNSGLLAGLWEFPSVTWEPSEQLQRKALLQELQRWAGPLPATHLRHLGEVVHTFSHIKLTYQVYGLALEGQTPVTTVPPGARWLTQEEFHTAAVSTAMKKVFRVYQGQQPGTCMGSKRSQVSSPCSRKKPRMGQQVLDNFFRSHISTDAHSLNSAAQ [V53M] | -0.112
MRKPRAAVGSGHRKQAASQEGRQKHAKNNSQAKPSACDGLARQPEEVVLQASPSSYHLFRDVAEVTAFRGSLLSWYDQEKRDLPWRRRAEDEMDLDRRAYAVWVSEVMLQQTQVATVINYYTGWMQKWPTLQDLASASLEEVNQLWAGLGYYSRGRRLQEGARKVVEELGGHMPRTAETLQQLLPGVGRYTAGAIASIAFGQATGVVDGNVARVLCRVRAIGADPSSTLVSQQLWGLAQQLVDPARPGDFNQAAMELGATVCTPQRPLCSQCPVESLCRARQRVEQEQLLASGSLSGSPDVEECAPNTGQCHLCLPPSEPWDQTLGVVNFPRKASRKPPREESSATCVLEQPGALGAQILLVQRPNSGLLAGLWEFPSVTWEPSEQLQRKALLQELQRWAGPLPATHLRHLGEVVHTFSHIKLTYQVYGLALEGQTPVTTVPPGARWLTQEEFHTAAVSTAMKKVFRVYQGQQPGTCMGSKRSQVSSPCSRKKPRMGQQVLDNFFRSHISTDAHSLNSAAQ [V53P] | -0.254
MRKPRAAVGSGHRKQAASQEGRQKHAKNNSQAKPSACDGLARQPEEVVLQASSSSYHLFRDVAEVTAFRGSLLSWYDQEKRDLPWRRRAEDEMDLDRRAYAVWVSEVMLQQTQVATVINYYTGWMQKWPTLQDLASASLEEVNQLWAGLGYYSRGRRLQEGARKVVEELGGHMPRTAETLQQLLPGVGRYTAGAIASIAFGQATGVVDGNVARVLCRVRAIGADPSSTLVSQQLWGLAQQLVDPARPGDFNQAAMELGATVCTPQRPLCSQCPVESLCRARQRVEQEQLLASGSLSGSPDVEECAPNTGQCHLCLPPSEPWDQTLGVVNFPRKASRKPPREESSATCVLEQPGALGAQILLVQRPNSGLLAGLWEFPSVTWEPSEQLQRKALLQELQRWAGPLPATHLRHLGEVVHTFSHIKLTYQVYGLALEGQTPVTTVPPGARWLTQEEFHTAAVSTAMKKVFRVYQGQQPGTCMGSKRSQVSSPCSRKKPRMGQQVLDNFFRSHISTDAHSLNSAAQ [V53S] | 0.00307
MRKPRAAVGSGHRKQAASQEGRQKHAKNNSQAKPSACDGLARQPEEVVLQASKSSYHLFRDVAEVTAFRGSLLSWYDQEKRDLPWRRRAEDEMDLDRRAYAVWVSEVMLQQTQVATVINYYTGWMQKWPTLQDLASASLEEVNQLWAGLGYYSRGRRLQEGARKVVEELGGHMPRTAETLQQLLPGVGRYTAGAIASIAFGQATGVVDGNVARVLCRVRAIGADPSSTLVSQQLWGLAQQLVDPARPGDFNQAAMELGATVCTPQRPLCSQCPVESLCRARQRVEQEQLLASGSLSGSPDVEECAPNTGQCHLCLPPSEPWDQTLGVVNFPRKASRKPPREESSATCVLEQPGALGAQILLVQRPNSGLLAGLWEFPSVTWEPSEQLQRKALLQELQRWAGPLPATHLRHLGEVVHTFSHIKLTYQVYGLALEGQTPVTTVPPGARWLTQEEFHTAAVSTAMKKVFRVYQGQQPGTCMGSKRSQVSSPCSRKKPRMGQQVLDNFFRSHISTDAHSLNSAAQ [V53K] | -0.0093
MRKPRAAVGSGHRKQAASQEGRQKHAKNNSQAKPSACDGLARQPEEVVLQASQSSYHLFRDVAEVTAFRGSLLSWYDQEKRDLPWRRRAEDEMDLDRRAYAVWVSEVMLQQTQVATVINYYTGWMQKWPTLQDLASASLEEVNQLWAGLGYYSRGRRLQEGARKVVEELGGHMPRTAETLQQLLPGVGRYTAGAIASIAFGQATGVVDGNVARVLCRVRAIGADPSSTLVSQQLWGLAQQLVDPARPGDFNQAAMELGATVCTPQRPLCSQCPVESLCRARQRVEQEQLLASGSLSGSPDVEECAPNTGQCHLCLPPSEPWDQTLGVVNFPRKASRKPPREESSATCVLEQPGALGAQILLVQRPNSGLLAGLWEFPSVTWEPSEQLQRKALLQELQRWAGPLPATHLRHLGEVVHTFSHIKLTYQVYGLALEGQTPVTTVPPGARWLTQEEFHTAAVSTAMKKVFRVYQGQQPGTCMGSKRSQVSSPCSRKKPRMGQQVLDNFFRSHISTDAHSLNSAAQ [V53Q] | -0.0248
MRKPRAAVGSGHRKQAASQEGRQKHAKNNSQAKPSACDGLARQPEEVVLQASTSSYHLFRDVAEVTAFRGSLLSWYDQEKRDLPWRRRAEDEMDLDRRAYAVWVSEVMLQQTQVATVINYYTGWMQKWPTLQDLASASLEEVNQLWAGLGYYSRGRRLQEGARKVVEELGGHMPRTAETLQQLLPGVGRYTAGAIASIAFGQATGVVDGNVARVLCRVRAIGADPSSTLVSQQLWGLAQQLVDPARPGDFNQAAMELGATVCTPQRPLCSQCPVESLCRARQRVEQEQLLASGSLSGSPDVEECAPNTGQCHLCLPPSEPWDQTLGVVNFPRKASRKPPREESSATCVLEQPGALGAQILLVQRPNSGLLAGLWEFPSVTWEPSEQLQRKALLQELQRWAGPLPATHLRHLGEVVHTFSHIKLTYQVYGLALEGQTPVTTVPPGARWLTQEEFHTAAVSTAMKKVFRVYQGQQPGTCMGSKRSQVSSPCSRKKPRMGQQVLDNFFRSHISTDAHSLNSAAQ [V53T] | -0.0126
MRKPRAAVGSGHRKQAASQEGRQKHAKNNSQAKPSACDGLARQPEEVVLQASNSSYHLFRDVAEVTAFRGSLLSWYDQEKRDLPWRRRAEDEMDLDRRAYAVWVSEVMLQQTQVATVINYYTGWMQKWPTLQDLASASLEEVNQLWAGLGYYSRGRRLQEGARKVVEELGGHMPRTAETLQQLLPGVGRYTAGAIASIAFGQATGVVDGNVARVLCRVRAIGADPSSTLVSQQLWGLAQQLVDPARPGDFNQAAMELGATVCTPQRPLCSQCPVESLCRARQRVEQEQLLASGSLSGSPDVEECAPNTGQCHLCLPPSEPWDQTLGVVNFPRKASRKPPREESSATCVLEQPGALGAQILLVQRPNSGLLAGLWEFPSVTWEPSEQLQRKALLQELQRWAGPLPATHLRHLGEVVHTFSHIKLTYQVYGLALEGQTPVTTVPPGARWLTQEEFHTAAVSTAMKKVFRVYQGQQPGTCMGSKRSQVSSPCSRKKPRMGQQVLDNFFRSHISTDAHSLNSAAQ [V53N] | -0.0892
MRKPRAAVGSGHRKQAASQEGRQKHAKNNSQAKPSACDGLARQPEEVVLQASHSSYHLFRDVAEVTAFRGSLLSWYDQEKRDLPWRRRAEDEMDLDRRAYAVWVSEVMLQQTQVATVINYYTGWMQKWPTLQDLASASLEEVNQLWAGLGYYSRGRRLQEGARKVVEELGGHMPRTAETLQQLLPGVGRYTAGAIASIAFGQATGVVDGNVARVLCRVRAIGADPSSTLVSQQLWGLAQQLVDPARPGDFNQAAMELGATVCTPQRPLCSQCPVESLCRARQRVEQEQLLASGSLSGSPDVEECAPNTGQCHLCLPPSEPWDQTLGVVNFPRKASRKPPREESSATCVLEQPGALGAQILLVQRPNSGLLAGLWEFPSVTWEPSEQLQRKALLQELQRWAGPLPATHLRHLGEVVHTFSHIKLTYQVYGLALEGQTPVTTVPPGARWLTQEEFHTAAVSTAMKKVFRVYQGQQPGTCMGSKRSQVSSPCSRKKPRMGQQVLDNFFRSHISTDAHSLNSAAQ [V53H] | 0.00594
MRKPRAAVGSGHRKQAASQEGRQKHAKNNSQAKPSACDGLARQPEEVVLQASLSSYHLFRDVAEVTAFRGSLLSWYDQEKRDLPWRRRAEDEMDLDRRAYAVWVSEVMLQQTQVATVINYYTGWMQKWPTLQDLASASLEEVNQLWAGLGYYSRGRRLQEGARKVVEELGGHMPRTAETLQQLLPGVGRYTAGAIASIAFGQATGVVDGNVARVLCRVRAIGADPSSTLVSQQLWGLAQQLVDPARPGDFNQAAMELGATVCTPQRPLCSQCPVESLCRARQRVEQEQLLASGSLSGSPDVEECAPNTGQCHLCLPPSEPWDQTLGVVNFPRKASRKPPREESSATCVLEQPGALGAQILLVQRPNSGLLAGLWEFPSVTWEPSEQLQRKALLQELQRWAGPLPATHLRHLGEVVHTFSHIKLTYQVYGLALEGQTPVTTVPPGARWLTQEEFHTAAVSTAMKKVFRVYQGQQPGTCMGSKRSQVSSPCSRKKPRMGQQVLDNFFRSHISTDAHSLNSAAQ [V53L] | -0.024
